Experimental data published in the DeepSol protein solubility set.

experiment: soluble on expression in E. coli; label from the status in PepcDB or PDB records

Sequence | soluble on expression in E. coli
AELVSDKALESAPTVGWASQNGFTTGGAAATSDNIYIVTNISEFTSALSAGAEAKIIQIKGTIDISGGTPYTDFADQKARSQINIPANTTVIGLGTDAKFINGSLIIDGTDGTNNVIIRNVYIQTPIDVEPHYEKGDGWNAEWDAMNITNGAHHVWIDHVTISDGNFTDDMYTTKDGETYVQHDGALDIKRGSDYVTISNSLIDQHDKTMLIGHSDSNGSQDKGKLHVTLFNNVFNRVTERAPRVRYGSIHSFNNVFKGDAKDPVYRYQYSFGIGTSGSVLSEGNSFTIANLSASKACKVVKKFNGSIFSDNGSVLNGSAVDLSGCGFSAYTSKIPYIYDVQPMTTELAQSITDNAGSGKL | soluble
AEPTTHFGYQNVPESQKAKKVAEVFHSVAAKYDLMNDLMSGGIHRLWKRFTIELSGVRSGNRVLDIAGGTGDLTRQFSRLVGPTGEVVLADINASMLKVGRDKLLDKGVSGNVSFVQADAEKLPFPDNHFDCVTIAFGLRNVTHKDEAIRSMLRVLKPGGRLLVLEFSKPSSNLLSKAYDAYSFSLLPLMGKLVTNDSESYRYLAESIRMHPDQETLKAMMVEAGFDRVTYHNMTGGIV | not soluble
AESHWCYEVQAESSNYPCLVPVKWGGNCQKDRQSPINIVTTKAKVDKKLGRFFFSGYDKKQTWTVQNNGHSVMMLLENKASISGGGLPAPYQAKQLHLHWSDLPYKGSEHSLDGEHFAMEMHIVHEKEKGTSRNVKEAQDPEDEIAVLAFLVEAGTQVNEGFQPLVEALSNIPKPEMSTTMAESSLLDLLPKEEKLRHYFRYLGSLTTPTCDEKVVWTVFREPIQLHREQILAFSQKLYYDKEQTVSMKDNVRPLQQLGQRTVIKS | soluble
AGGPGSRARAAGARGCRLRSQLVPVRALGLGHRSDELVRFRFCSGSCRRARSPHDLSLASLLGAGALRPPPGSRPVSQPCCRPTRYEAVSFMDVNSTWRTVDRLSATACGCLG | soluble
AGKATANAPTDAAITAASDFAALEKACAGRLGVTLLDTASGRRIGHRQDERFPMCSTFKSMLAATVLSQAERMPALLDRRVPVGEADLLSHAPVTRRHAGKDMTVRDLCRATIITSDNTAANLLFGVVGGPPAVTAFLRASGDTVSRSDRLEPELNSFAKGDPRDTTTPAAMAATLQRVVLGEVLQPASRQQLADWLIDNETGDACLRAGLGKRWRVGDKTGSNGEDARNDIAVLWPVAGGAPWVLTAYLQAGAISYEQRASVLAQVGRIADRLIG | soluble
AGRTGRLHLAIECHSCFQWLMPALDAFRGQWPDVALDLSAAFSFAPLPALVRGDLDLVITSDPQALEAVTYLPLFKYELVLAVAESNPLAANRHVMPEQLADQTLITYPVDRQRLDIFTGF | not soluble
AGTHDYSTALKDSIIFFDANKCGPQAGENNVFDWRGACHTTDGSDVGVDLTGGYHDAGDHVKFGLPQGYSAAILGWSLYEFKESFDATGNTTKMLQQLKYFTDYFLKSHPNSTTFYYQVGEGNADHTYWGAPEEQTGQRPSLYKADPSSPASDILSETSAALTLMYLNYKNIDSAYATKCLNAAKELYAMGKANQGVGNGQSFYQATSFGDDLAWAATWLYTATNDSTYITDAEQFITLGNTMNENKMQDKWTMCWDDMYVPAALRLAQITGKQIYKDAIEFNFNYWKTQVTTTPGGLKWLSNWGVLRYAAAESMVMLVYCKQNPDQSLLDLAKKQVDYILGDNPANMSYIIGYGSNWCIHPHHRAANGYTYANGDNAKPAKHLLTGALVGGPDQNDKFLDDANQYQYTEVALDYNAGLVGVLAGAIKFFGGTIVNPPVKK | soluble
AHHHHHHASAKWVCKICGYIYDEDAGDPDNGISPGTKFEELPDDWVCPICGAPKSEFEKLEDGSRRMDKVDLQLIKILSQNSRLTYRELAEMLGTTRQRVARKVDKLKKLGIIRKFTIIPNLEKLNYMYAILLIKVKATENIYQVAKVLKDHEDVKILELGVGKYNIIAHVLVPKDIKKAQEKVNDVIKEINGIEDLEVEFVSDIPKFELL | soluble
AHHHHHHGSGLFDKLKKAEVQKKVPSSLKSRIKEEPSEVELVPVEEEVLAKELVKPKVVYIKKIVISTHADLKRVSDELKSGNIVIVELTPLEQKPELLKKIAEQLMTTASIIGGDYAKICGSPLKVILTPPEIKIAKE | not soluble
AHHHHHHGSIIIYTTFPTWESAEKVTKALLEERLVACANLREHKAFYWWQGKIEEDNEIGVILKTREDLWEEVKKRIKELHPYTVPAIIKINVEDVNEEYLKWLLEETKST | not soluble
